Substitutions are numbered along the chain they refer to. Names may count otherwise.
What was measured:
[1] = target: T1, purified recombinant human α5β1 integrin heterodimer, 6×His tagged (rh-α5β1); Acro Biosystems, cat. no. … (human, UniProt P08648 42-995; P05556 21-728); experiment: BLI (Octet), supernatant mAb on anti-mouse IgG Fc sensor, 20 nM rh-α5β1
T1 construct: bought recombinant heterodimer; also called rh-α5β1-6×His tagged protein; His-tagged-α5β1
Source text: Anti-Mouse IgG Fc biosensors were used to load each clone supernatant. Assay steps were as follows: Sensor Check (30s)-->Load Ab (700s)-->Quench (480s)-->Baseline(480s)-->Ab Assoc. (600s)-->Dissoc. (600s).

[2] = target: T1, purified recombinant human α5β1 …; experiment: ELISA, inhibition of rh-α5β1-His binding to coated FN, purified hybridoma mAb
Description: Immulon4 HBX ELISA 96-well plates were coated with FN by incubation overnight at 4° C. with 2.5 μg/mL human FN (R&D Systems, Minneapolis, MN 55413, cat. no. 1918-FN) in 1×PBS (0.01M phosphate buffer and 0.154M NaCl, pH 7.4). Plates were then washed 3 times with Wash Buffer (1× Tris Buffered Saline containing 0.05% Tween20), blocked with 2% BSA in 1×TBS for 2 hours at room temperature (RT). […] Isotype control antibody (Control Ab; Ms IgG2a EMD Millipore Corp, Billerica, MA, cat. no. PP102) was used to normalize data across different assay runs. […] Following 1 hour at RT, the wells were washed 3 times, incubated with biotinylated Anti-6×His-Tag Ab (Invitrogen, Carlsbad, CA, cat. no. MAI-21315-BTIN) at 1:1000 in Standard Diluent for 1 hour, washed 3 times, incubated for 30 minutes with poly-HRP Streptavidin (Thermo Fisher Scientific, Waltham, MA, cat. no. N200), washed 4 times, incubated with TMB substrate (Thermo Fisher Scientific, Waltham, MA, cat. no. N301) for 2-5 minutes, followed by addition of ELISA Stop Solution (Invitrogen, Carlsbad, CA, cat. no. SS04). Absorbance 450 nm was measured. Data points were normalized to the isotype Control Ab values at each concentration and reported as % Absorbance 450 nm normalized to Control Ab. Non-linear regression analysis was used to fit curves (4-parameter) to the data using GraphPad Prism version 9.0.2 (GraphPad Software, LLC, San Diego, CA).

rh-α4β1 = target: T2, rh-α4β1 (Homo sapiens, UniProt P05556+P13612); experiment: Plate-based ELISA reactivity to rh-α4β1 (α5 subunit specificity); format: binding; details: hybridoma supernatant diluted 1:10; plate coated with rh-α4β1
T2 construct: purchased R&D Systems 3230-A5 & 5668-A4
Description: (§1) The 249 positive hybridoma supernatants selected as described in Example 1 were screened for reactivity to rh-α5β1 in a plate-based ELISA. Immulon4 HBX ELISA 96-well plates (Thermo Fisher Scientific, Waltham, MA, cat. no. 3855) were coated with rh-α5β1 (R&D Systems, Minneapolis, MN 55413, cat. no. 3230-A5), at 1 μg/mL in PBS supplemented with 0.5 mM MgCl2, MnCl2 and CaCl2 and incubated overnight at 4° C. Plates were washed 3 times with Wash Buffer (1× Tris Buffered Saline containing 0.05% Tween20), blocked with 2% BSA in 1×TBS (made from 10× Thermo Scientific Blocker BSA (10×) in TBS; Thermo Fisher Scientific, Waltham, MA, cat. no. 37520) for 2 hours at room temperature (RT) then incubated with hybridoma supernatants diluted 1:10 with Standard Diluent (2% BSA, 1×TBS, 0.05% Tween20). Following a 1 hour incubation at RT, wells were washed 3 times, incubated with biotinylated goat anti-mouse secondary antibody at 1:8000 dilution (Invitrogen, Carlsbad, CA, cat. no. 62-6540) for 1 hour, washed 3 times, then incubated for 30 minutes with poly-HRP Streptavidin (Thermo Fisher Scientific, Waltham, MA, cat. no. N200), washed 4 times, incubated with TMB (Thermo Fisher Scientific, Waltham, MA, cat. no. N301) for 5-10 minutes, followed by addition of ELISA Stop Solution (Invitrogen, Carlsbad, CA, cat. no. SS04). Absorbance 450 nm was measured.
In parallel the 249 hybridomas were screened for specificity to the human α5 subunit by testing for reactivity to rh-α4β1 (R&D Systems, Minneapolis, MN 55413; cat. no. 3230-A5 & 5668-A4). Any hybridoma that reacted to both rh-α4β1 and rh-α5β1 is likely to be β1 subunit specific and not considered α5 specific. Using the protocol described above, 29 hybridoma supernatants reacted strongly (>1.0 Absorbance 450 nm) with rh-α4β1 and were not considered to be α5 specific.

[3] = target: T3, recombinant human α5β1 integrin (rh-α5β1) (Homo sapiens, UniProt P05556+P08648); experiment: Plate-based ELISA reactivity to rh-α5β1; format: binding; details: selected for further characterization among α5 specific hybridomas (28 selected)
T3 construct: purchased R&D Systems 3230-A5
Description: as §1

[4] = target: T4, recombinant mouse α5β1 (rm-α5β1) (Mus musculus, UniProt P09055+P11688); experiment: Plate-based ELISA cross-reactivity to rm-α5β1; format: binding; details: hybridoma supernatant diluted 1:10; plate coated with rm-α5β1
T4 construct: purchased R&D Systems 7728-A5
Description: as §1
In addition, hybridomas were tested for cross-reactivity to recombinant mouse α5β1 (rm-α5β1; R&D Systems, Minneapolis, MN 55413; cat. no. 7728-A5) using the same protocol as above except that the plates were coated with rm-α5β1.

[5] = target: T5, recombinant human α5β1 integrin (rh-α5β1; R&D Systems, cat. no. 3230-A5) (human, UniProt P08648 42-995; P05556 21-728); experiment: ELISA, coated rh-α5β1, supernatant 1:10
T5 construct: bought recombinant heterodimer
Description: Plates were washed 3 times with Wash Buffer (1× Tris Buffered Saline containing 0.05% Tween20), blocked with 2% BSA in 1×TBS (made from 10× Thermo Scientific Blocker BSA (10×) in TBS; Thermo Fisher Scientific, Waltham, MA, cat. no. 37520) for 2 hours at room temperature (RT) then incubated with hybridoma supernatants diluted 1:10 with Standard Diluent (2% BSA, 1×TBS, 0.05% Tween20). […] Absorbance 450 nm was measured.

[6] = target: T6, binding of α5β1 integrin to fibronectin (FN) (Homo sapiens, UniProt P05556+P08648); experiment: Quantitative FN inhibition (FN-blocking) assay in ELISA format; format: biochemical; details: by ELISA
T6 construct: purchased Acro Biosystems IT1-H52W5
Source text: To determine whether the 9 unique hybridoma clones selected as described in Example 4 were able to inhibit the binding of α5β1 integrin to fibronectin (FN), the antibodies were first purified from hybridoma supernatants by Protein A chromatography, protein concentrations measured by BCA assay (Pierce™ BCA Protein Assay Kit; Thermo Fisher Scientific, Waltham, MA, cat. no. 23225) and then tested in a quantitative FN inhibition assay in an ELISA format.
Immulon4 HBX ELISA 96-well plates were coated with FN by incubation overnight at 4° C. with 2.5 μg/mL human FN (R&D Systems, Minneapolis, MN 55413, cat. no. 1918-FN) in 1×PBS (0.01M phosphate buffer and 0.154M NaCl, pH 7.4). Plates were then washed 3 times with Wash Buffer (1× Tris Buffered Saline containing 0.05% Tween20), blocked with 2% BSA in 1×TBS for 2 hours at room temperature (RT). Antibodies were diluted in Standard Diluent (2% BSA, 1×TBS, 0.05% Tween20) containing 0.1 μg/mL rh-α5β1-6×His tagged protein (Acro Biosystems, Newark, DE, cat. no. IT1-H52W5), to generate an 11 point 1:3 antibody dilution series ranging from 10,000 ng/mL to 0.17 ng/mL. Isotype control antibody (Control Ab; Ms IgG2a EMD Millipore Corp, Billerica, MA, cat. no. PP102) was used to normalize data across different assay runs. For the assays, 100 uL of the antibody dilution series/His-tagged-α5β1 mixture was added to the wells after the blocking solution was removed and wells were washed 3 times. Following 1 hour at RT, the wells were washed 3 times, incubated with biotinylated Anti-6×His-Tag Ab (Invitrogen, Carlsbad, CA, cat. no. MAI-21315-BTIN) at 1:1000 in Standard Diluent for 1 hour, washed 3 times, incubated for 30 minutes with poly-HRP Streptavidin (Thermo Fisher Scientific, Waltham, MA, cat. no. N200), washed 4 times, incubated with TMB substrate (Thermo Fisher Scientific, Waltham, MA, cat. no. N301) for 2-5 minutes, followed by addition of ELISA Stop Solution (Invitrogen, Carlsbad, CA, cat. no. SS04). Absorbance 450 nm was measured. Data points were normalized to the isotype Control Ab values at each concentration and reported as % Absorbance 450 nm normalized to Control Ab. Non-linear regression analysis was used to fit curves (4-parameter) to the data using GraphPad Prism version 9.0.2 (GraphPad Software, LLC, San Diego, CA).
Freeze-thaw stability was tested on a small aliquot of each chimera antibody by overnight storage at −80° C. followed by thaw on ice, repeated three times. […] IC50s were calculated by non-linear regression analysis curve-fitting (4-parameter) of the ELISA data (FIG. 5) using GraphPad Prism version 9.0.2 (GraphPad Software, LLC, San Diego, CA). […]

T1 sequence (P08648 42-995 limits assumed, form in doubt, chain 1 of 2): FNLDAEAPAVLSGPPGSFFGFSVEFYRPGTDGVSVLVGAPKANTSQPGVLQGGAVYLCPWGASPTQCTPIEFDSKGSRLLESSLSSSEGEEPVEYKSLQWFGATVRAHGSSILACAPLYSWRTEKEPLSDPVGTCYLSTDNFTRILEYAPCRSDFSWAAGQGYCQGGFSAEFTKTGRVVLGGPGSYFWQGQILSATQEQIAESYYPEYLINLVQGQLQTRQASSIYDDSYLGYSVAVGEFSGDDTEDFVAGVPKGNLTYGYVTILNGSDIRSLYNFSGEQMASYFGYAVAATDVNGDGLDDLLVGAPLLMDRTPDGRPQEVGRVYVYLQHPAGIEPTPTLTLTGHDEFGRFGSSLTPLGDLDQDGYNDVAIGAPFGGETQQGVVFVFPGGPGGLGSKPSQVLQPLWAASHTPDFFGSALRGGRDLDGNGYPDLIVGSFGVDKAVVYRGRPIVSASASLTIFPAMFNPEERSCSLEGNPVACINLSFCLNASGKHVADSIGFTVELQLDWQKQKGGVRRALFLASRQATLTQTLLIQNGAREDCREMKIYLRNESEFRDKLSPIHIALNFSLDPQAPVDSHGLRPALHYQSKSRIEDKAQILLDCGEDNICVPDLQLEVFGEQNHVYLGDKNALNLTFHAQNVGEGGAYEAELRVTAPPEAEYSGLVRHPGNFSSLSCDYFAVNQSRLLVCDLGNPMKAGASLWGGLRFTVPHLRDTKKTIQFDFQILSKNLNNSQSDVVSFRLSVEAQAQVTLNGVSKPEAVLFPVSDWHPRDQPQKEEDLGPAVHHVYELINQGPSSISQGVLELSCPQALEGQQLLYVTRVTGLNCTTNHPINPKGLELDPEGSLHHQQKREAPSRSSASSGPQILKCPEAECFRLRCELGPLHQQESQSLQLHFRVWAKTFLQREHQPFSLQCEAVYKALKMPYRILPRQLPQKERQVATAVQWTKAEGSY
T1 sequence (P05556 21-728 limits assumed, form in doubt, chain 2 of 2): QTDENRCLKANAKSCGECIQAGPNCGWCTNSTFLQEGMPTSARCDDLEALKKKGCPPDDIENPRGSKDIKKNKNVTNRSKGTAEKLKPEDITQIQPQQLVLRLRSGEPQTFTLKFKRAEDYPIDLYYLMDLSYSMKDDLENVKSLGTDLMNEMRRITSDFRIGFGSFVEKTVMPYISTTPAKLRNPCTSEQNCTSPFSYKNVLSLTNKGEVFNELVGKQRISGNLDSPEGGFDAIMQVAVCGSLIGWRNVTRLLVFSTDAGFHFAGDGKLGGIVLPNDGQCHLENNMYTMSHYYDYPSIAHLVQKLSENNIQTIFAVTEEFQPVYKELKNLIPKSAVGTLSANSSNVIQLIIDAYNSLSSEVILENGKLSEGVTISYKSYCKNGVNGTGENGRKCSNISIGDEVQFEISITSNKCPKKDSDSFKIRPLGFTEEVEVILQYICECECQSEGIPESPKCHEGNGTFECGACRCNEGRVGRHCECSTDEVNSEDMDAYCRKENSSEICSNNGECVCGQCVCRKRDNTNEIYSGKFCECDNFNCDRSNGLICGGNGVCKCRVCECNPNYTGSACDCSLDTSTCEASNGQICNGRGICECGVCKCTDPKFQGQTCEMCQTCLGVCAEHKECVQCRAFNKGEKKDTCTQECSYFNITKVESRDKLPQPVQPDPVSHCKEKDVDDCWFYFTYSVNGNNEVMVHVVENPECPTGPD
T4 sequence (P11688 45-898 limits assumed): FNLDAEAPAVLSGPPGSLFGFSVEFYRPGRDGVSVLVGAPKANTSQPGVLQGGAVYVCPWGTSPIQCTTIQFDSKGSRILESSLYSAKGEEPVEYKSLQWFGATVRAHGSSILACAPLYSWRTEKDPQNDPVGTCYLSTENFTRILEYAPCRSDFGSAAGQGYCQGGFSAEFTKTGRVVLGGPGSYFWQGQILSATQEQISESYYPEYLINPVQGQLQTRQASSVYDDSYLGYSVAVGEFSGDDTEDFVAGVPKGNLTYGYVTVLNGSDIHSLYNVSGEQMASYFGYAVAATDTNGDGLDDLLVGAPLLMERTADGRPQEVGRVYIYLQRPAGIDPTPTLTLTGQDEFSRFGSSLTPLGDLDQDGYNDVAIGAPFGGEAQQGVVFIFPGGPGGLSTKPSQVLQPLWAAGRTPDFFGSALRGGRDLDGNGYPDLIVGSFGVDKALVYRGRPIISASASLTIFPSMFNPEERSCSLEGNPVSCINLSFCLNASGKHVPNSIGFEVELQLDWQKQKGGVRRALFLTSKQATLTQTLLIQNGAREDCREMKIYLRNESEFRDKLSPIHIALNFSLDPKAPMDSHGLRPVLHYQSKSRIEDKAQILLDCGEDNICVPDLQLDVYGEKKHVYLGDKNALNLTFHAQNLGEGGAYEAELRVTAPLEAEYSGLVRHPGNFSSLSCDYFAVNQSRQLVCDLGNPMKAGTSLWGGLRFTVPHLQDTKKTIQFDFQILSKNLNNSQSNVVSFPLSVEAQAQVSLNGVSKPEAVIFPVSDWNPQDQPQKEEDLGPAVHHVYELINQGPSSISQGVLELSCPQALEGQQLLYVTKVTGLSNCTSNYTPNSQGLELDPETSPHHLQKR
T4 sequence (P11688 899-999 limits assumed): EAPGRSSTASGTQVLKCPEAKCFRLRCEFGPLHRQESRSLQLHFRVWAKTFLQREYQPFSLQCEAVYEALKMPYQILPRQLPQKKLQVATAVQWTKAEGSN
T4 sequence (P09055 21-728 limits assumed): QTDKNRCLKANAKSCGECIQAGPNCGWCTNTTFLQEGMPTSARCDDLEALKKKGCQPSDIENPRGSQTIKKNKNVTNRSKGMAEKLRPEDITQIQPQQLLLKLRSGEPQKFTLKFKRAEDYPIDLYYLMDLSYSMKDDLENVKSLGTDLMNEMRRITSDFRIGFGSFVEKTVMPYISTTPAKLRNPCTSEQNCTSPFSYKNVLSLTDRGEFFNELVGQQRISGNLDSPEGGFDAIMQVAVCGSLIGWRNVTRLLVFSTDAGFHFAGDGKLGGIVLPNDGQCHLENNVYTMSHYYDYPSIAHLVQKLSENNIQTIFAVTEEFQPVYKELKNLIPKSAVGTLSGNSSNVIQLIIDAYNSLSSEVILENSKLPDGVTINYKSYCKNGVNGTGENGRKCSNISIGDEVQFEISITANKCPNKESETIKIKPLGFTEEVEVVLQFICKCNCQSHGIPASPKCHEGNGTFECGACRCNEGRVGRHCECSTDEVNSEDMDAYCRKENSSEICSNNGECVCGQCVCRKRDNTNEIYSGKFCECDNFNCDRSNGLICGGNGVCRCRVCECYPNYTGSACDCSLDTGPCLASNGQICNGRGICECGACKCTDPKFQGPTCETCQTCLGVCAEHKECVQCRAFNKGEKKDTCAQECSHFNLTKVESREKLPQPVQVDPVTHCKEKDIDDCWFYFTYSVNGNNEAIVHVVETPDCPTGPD
T3 sequence (P08648 42-894 limits assumed): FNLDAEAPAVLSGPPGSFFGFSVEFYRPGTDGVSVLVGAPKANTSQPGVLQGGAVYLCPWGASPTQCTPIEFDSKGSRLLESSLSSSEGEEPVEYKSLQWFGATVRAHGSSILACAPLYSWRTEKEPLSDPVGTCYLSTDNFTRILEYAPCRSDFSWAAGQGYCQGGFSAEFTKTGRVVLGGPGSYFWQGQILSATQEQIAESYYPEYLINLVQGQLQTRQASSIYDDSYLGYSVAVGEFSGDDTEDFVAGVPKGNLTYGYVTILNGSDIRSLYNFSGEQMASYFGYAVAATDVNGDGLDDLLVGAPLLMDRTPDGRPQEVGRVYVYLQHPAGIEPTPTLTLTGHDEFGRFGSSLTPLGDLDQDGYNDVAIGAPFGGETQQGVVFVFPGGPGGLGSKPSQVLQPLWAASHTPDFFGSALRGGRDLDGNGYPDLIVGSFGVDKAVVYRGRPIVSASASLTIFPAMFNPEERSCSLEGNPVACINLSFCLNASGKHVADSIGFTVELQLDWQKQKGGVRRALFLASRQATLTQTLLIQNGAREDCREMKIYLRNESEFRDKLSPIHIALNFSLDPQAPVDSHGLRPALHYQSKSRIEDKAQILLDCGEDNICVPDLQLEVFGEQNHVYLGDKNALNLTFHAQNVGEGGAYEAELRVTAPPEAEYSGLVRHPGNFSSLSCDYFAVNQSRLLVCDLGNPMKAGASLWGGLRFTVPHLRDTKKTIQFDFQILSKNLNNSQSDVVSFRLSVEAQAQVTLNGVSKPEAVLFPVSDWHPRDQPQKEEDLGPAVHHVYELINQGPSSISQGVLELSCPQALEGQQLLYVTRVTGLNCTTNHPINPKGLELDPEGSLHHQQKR
T3 sequence (P08648 895-995 limits assumed): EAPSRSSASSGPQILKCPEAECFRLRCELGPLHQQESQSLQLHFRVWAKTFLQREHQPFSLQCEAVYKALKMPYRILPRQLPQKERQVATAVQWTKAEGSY
T3 sequence (P05556 21-728 limits assumed): as the sequence (P05556 21-728 limits assumed, form in doubt, chain 2 of 2) above
T6 sequence (P08648 42-894 limits assumed): as the sequence (P08648 42-894 limits assumed) above
T6 sequence (P08648 895-995 limits assumed): as the sequence (P08648 895-995 limits assumed) above
T6 sequence (P05556 21-728 limits assumed): as the sequence (P05556 21-728 limits assumed, form in doubt, chain 2 of 2) above
T5 sequence (P08648 42-995 limits assumed, form in doubt, chain 1 of 2): as the sequence (P08648 42-995 limits assumed, form in doubt, chain 1 of 2) above
T5 sequence (P05556 21-728 limits assumed, form in doubt, chain 2 of 2): as the sequence (P05556 21-728 limits assumed, form in doubt, chain 2 of 2) above

B1: A-15B08 (antibody, V domains shown)
VH: QVQLKESGPGLVAPSQSLSITCTISGFSLTSYGVHWVRQPPGKGLEWLVVIWSDGSTTYNSTLKSRLSISKDNSKSQVFFKMNSLQTDDTAMYYCARHYDYDGDWFAYWGQGTLVTVSA
VL: QIVLTQSPAIMSASLGERVTMTCTASSRVSSNSLHWYQQKPGSSPKLWIYSTSNLASGVPARFSGSGSGTSYSLTISSMEAEDAATYYCHQYLRSPPTFGGGTKLEIK
notes: mouse hybridoma antibody; also called A-15B08 (hybridoma)
- Kd [1]: 1.31 nM
- koff [1]: 0.000431 s⁻¹
- kon [1]: 328000 M⁻¹ s⁻¹
- % Max Inhibition [2]: 96%

B2: C-14D12 (antibody, V domains shown)
VH: QVQLKESGPDLVAPSQSLSITCTVSGFSLTDYGVHWVRQPPGKGLEWLVVIWSDGSTTYNSALKSRLSITKDTSKRQVFLKMNSLQTDDTAMYYCARHAPSFIRYGSRYDALDYWGQGTSVTVSS
VL: B1 VL with M21L, R28S, S30T, N32S, S33F, L93H
notes: mouse hybridoma antibody; also called C-14D12 (hybridoma)
- Kd [1]: 0.379 nM
- koff [1]: 9.94e-05 s⁻¹
- kon [1]: 263000 M⁻¹ s⁻¹
- % Max Inhibition [2]: 96%

B3: A2-8H11: hybridoma clone positive on K562 cells (antibody, V domains shown)
VH: QVQLKESGPGLVAPSQSLSITCTISGFSLTTYGVHWVRQPPGKGLEWLVVIWSDGSTTYNSALKSRLNITKDNSKSQVFLKMNSLQTDDTAMYYCVRHGGLLRRDAMDYWGQGTSVTVSS
VL: B1 VL with R28S, L34F, I49L
- Absorbance 450 nm Human α4β1 (rh-α4β1): 0.0595
- Selected Human α5 Specific [3]: Yes
- Absorbance 450 nm Mouse α5β1 [4]: 0.0515

B4: A2-6C10: hybridoma clone positive on K562 cells (antibody, V domains shown)
VH: B3 VH
VL: B1 VL with R28S, L34F, I49L
- Absorbance 450 nm Human α4β1 (rh-α4β1): 0.0609
- Selected Human α5 Specific [3]: Yes
- Absorbance 450 nm Mouse α5β1 [4]: 0.0551

B5: A2-3B06 (antibody, V domains shown)
VH: B3 VH
VL: B1 VL with R28S, L34F, I49L
notes: mouse hybridoma antibody
- Absorbance 450 nm [5]: 2.03
- Kd [1]: 4.74 nM
- koff [1]: 0.00137 s⁻¹
- kon [1]: 289000 M⁻¹ s⁻¹
- % Max Inhibition [2]: 93%

B6: A-15B08-T62A: human IgG4 chimera variant of A-15B08, Thr62 to Ala in CDRH2; VH SEQ ID NO:135, VL SEQ ID NO:26 (antibody, V domains shown)
VH: B1 VH with T62A
VL: B1 VL
modifications: human IgG4 constant regions; A-15B08-T62A VH Sequence; A-15B08 VL Sequence
- class of FN binding blocker [6]: strong blockers of FN binding

B7: A-3A08: hybridoma clone positive on K562 cells (antibody, V domains shown)
VH: B3 VH
VL: B1 VL with R28S, L34F, I49L
- Absorbance 450 nm Mouse α5β1 [4]: 0.6708
